Experiment in all cases: cell_activity
The subject of data set [1] is ZFN 12775 golden. The note with it: pair 75.76 (with 12776), 7 ng mRNA, golden b1 heterozygous embryos.
Data set [2] relates to ZFN 13368 notail. The note with it: pair ntl_68 (inferred 13368 with 13370), 5 ng mRNA, ntl b195 het x wildtype cross.
In data set [3] the test system is ZFN 12776 golden. Particulars: pair 75.76 (with 12775), 7 ng mRNA, golden b1 heterozygous embryos.
Data set [4] has as its system ZFN 13370 notail. The note with it: pair ntl_68 (inferred with 13368), 5 ng mRNA; 16% in pair ntl_78.
The subject of data set [5] is ZFN 12804 golden. Particulars: pair 04.05 (with 12805), 5 ng mRNA; also 32% in pair 04.06.
The subject of data set [6] is ZFN 12805 golden. Particulars: pair 04.05 (with 12804), 5 ng mRNA.
The test system of data set [7] is ZFN 12806 golden. Particulars: pair 04.06 (with 12804), 5 ng mRNA.

Consider “GTGCAGCGTGCGGCCTGCTGTCCTCTGC (double strand) [golden 12775 target]”, for which the activity (% embryos with unpigmented eye clones) in data set [1] turned out to be 23.
For “TGTACTCGGTCCTGCTGGATTTTGTGGC (double strand) [no tail 13368 target]”, the activity (% no tail-like embryos) in data set [2] worked out at 27.
In data set [3], “ATGCACAGCAGGTTATAGACAGCAGAAC (double strand) [golden 12776 target]” returned an activity (% embryos with unpigmented eye clones) of 23.
In data set [4], “GCATTAGGGTCGAGACCGGTGACACTGG (double strand) [no tail 13370 target]” had an activity (% no tail-like embryos) of 27.
Consider “TTGTTGACGTGGGCTCCCCGGTGGATGT (double strand) [golden 12804 target]”, for which the activity (% embryos with unpigmented eye clones) in data set [5] is 32.
As to “ACCGTCTGGATGAACCACGGCAGGCCCA (double strand) [golden 12805 target]”, the activity (% embryos with unpigmented eye clones) in data set [6] is 32.
In turn, “ACCGTCTGGATGAACCACGGCAGGCCCA (double strand) [golden 12806 target]” returned an activity (% embryos with unpigmented eye clones) in data set [7] of 32.
